Assay results: US20020155533A1 (Takeda / Millennium, published 2002)
“And” between values parts separate entries of the source, which are not always exact repeats. Equal entries are not always repeated. Where no end group is shown, it is not given here.

Experiments:
[1] = target: bovine PACAP receptor protein from bovine cerebrum (bovine) (UniProt Q29627); test: radioligand
[2] = target: T1, rat PACAP receptor protein Type I-A (pRPR3-A, derived from pRPACAPR46-5), expressed in CHO or Sf9 cells (rat, UniProt P32215 20-523); test: competition with 100 pM [125I]-PACAP27, membrane fraction of pRPR3-A-introduced CHO cells (FIG. 40A)
T1 construct: also called pRPR3-A-introduced CHO cells; clone A12
T1 sequence: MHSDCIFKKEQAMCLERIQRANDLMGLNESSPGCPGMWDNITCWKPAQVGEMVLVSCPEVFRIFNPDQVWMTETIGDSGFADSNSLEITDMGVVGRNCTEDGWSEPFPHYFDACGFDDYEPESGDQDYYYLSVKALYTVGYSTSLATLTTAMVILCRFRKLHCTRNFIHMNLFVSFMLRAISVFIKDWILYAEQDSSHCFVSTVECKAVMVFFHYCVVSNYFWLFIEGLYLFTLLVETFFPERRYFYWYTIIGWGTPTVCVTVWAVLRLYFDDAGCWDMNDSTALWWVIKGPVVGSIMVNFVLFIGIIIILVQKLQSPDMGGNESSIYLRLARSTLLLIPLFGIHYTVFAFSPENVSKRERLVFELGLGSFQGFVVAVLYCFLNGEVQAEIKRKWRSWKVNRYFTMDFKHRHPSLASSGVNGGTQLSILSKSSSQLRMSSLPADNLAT
Procedure: (§1) The pRPR3-A-introduced and pRPR4-B-introduced CHO cells obtained in (2) described above were each disrupted in sodium carbonate buffer containing 1 mM EDTA, 0.5 mM PMSF, 20 μg/ml leupeptin, 4 μg/ml E-64 and 1 μg/ml pepstatin with a Polytron homogenizer (Kinematica) to prepare membrane fractions. Using the membrane fractions, complex binding experiments were conducted. […] The reaction was conducted at 25° C. for 1 hour, and bound ligands were separated from free ligands by filtration through a filter. […] The amount of bound ligands was measured with a γ-counter.

[3] = target: T2, rat PACAP receptor protein Type I-B (pRPR4-B, derived from pRPACAPR12), expressed in CHO or Sf9 cells (rat, UniProt P32215 20-523); test: competition with 100 pM [125I]-PACAP27, membrane fraction of pRPR4-B-introduced CHO cells (FIG. 40B)
T2 construct: also called pRPR4-B-introduced CHO cells; clone B17
T2 sequence: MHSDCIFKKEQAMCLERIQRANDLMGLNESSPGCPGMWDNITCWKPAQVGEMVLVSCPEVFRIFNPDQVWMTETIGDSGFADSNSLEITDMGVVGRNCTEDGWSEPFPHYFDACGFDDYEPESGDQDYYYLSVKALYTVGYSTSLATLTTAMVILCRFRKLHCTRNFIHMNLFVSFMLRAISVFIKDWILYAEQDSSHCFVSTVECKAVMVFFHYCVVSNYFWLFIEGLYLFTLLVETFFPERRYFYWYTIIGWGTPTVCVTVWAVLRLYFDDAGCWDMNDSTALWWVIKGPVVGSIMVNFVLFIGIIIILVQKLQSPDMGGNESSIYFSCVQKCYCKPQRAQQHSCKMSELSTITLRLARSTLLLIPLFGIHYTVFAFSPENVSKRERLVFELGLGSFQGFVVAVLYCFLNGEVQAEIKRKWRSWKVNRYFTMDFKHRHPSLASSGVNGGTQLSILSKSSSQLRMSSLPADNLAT
Procedure: as §1

[4] = target: T3, bovine PACAP receptor protein Type I-A encoded by pBPR-T, expressed in CHO cells (UniProt Q29627 38-513); test: radioligand
T3 chain: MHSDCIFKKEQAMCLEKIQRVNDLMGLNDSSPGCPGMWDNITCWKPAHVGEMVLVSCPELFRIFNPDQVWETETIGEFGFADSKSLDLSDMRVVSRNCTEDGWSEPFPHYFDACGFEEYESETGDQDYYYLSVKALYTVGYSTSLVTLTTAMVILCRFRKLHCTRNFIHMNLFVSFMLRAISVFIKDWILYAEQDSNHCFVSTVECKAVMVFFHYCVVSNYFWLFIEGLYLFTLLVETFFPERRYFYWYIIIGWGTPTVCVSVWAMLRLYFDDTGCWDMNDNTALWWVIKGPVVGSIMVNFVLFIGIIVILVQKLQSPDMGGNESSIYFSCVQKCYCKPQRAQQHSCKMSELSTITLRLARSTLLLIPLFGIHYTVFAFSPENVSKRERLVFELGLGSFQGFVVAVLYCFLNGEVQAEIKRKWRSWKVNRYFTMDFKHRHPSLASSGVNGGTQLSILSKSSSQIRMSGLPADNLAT

[5] = target: bovine PACAP receptor protein from bovine cerebrum (bovine) (UniProt Q29627); test: saturation binding experiment; fraction: Ion exchange
[6] = target: bovine PACAP receptor protein from bovine cerebrum (bovine) (UniProt Q29627); test: saturation binding experiment; fraction: Avidin-agarose
[7] = target: bovine PACAP receptor protein from bovine cerebrum (bovine) (UniProt Q29627); test: saturation binding experiment; fraction: Hydroxyapatite
[8] = target: bovine PACAP receptor protein from bovine cerebrum (bovine) (UniProt Q29627); test: saturation binding experiment; fraction: Membrane fraction
[9] = target: bovine PACAP receptor protein from bovine cerebrum (bovine) (UniProt Q29627); test: saturation binding experiment; fraction: Solubilized product
[10] = target: bovine PACAP receptor protein from bovine cerebrum (bovine) (UniProt Q29627); test: saturation binding experiment; fraction: Micro hydroxyapatite
[11] = target: T1, rat PACAP receptor protein Type I-A …; test: 100 pM [125I]-PACAP27 on whole CHO cells, gamma counting (FIG. 39)
Procedure: (§2) The cells were incubated until they covered the bottom surface of the tissue culture plates completely. […] The cells were washed twice with a buffer for the binding experiment [Hank's solution (pH 7.4) containing 5 mM HEPES, 5% CRAPS and 0.1% BSA]. […] After incubation at 37° C. for 1 hour, the cells washed three times with the buffer for the binding experiment were dissolved with 1 ml of 0.5 N NaOH and 0.1% SDS for each well, and the radioactivity contained therein was measured with a γ-counter.

[12] = target: T2, rat PACAP receptor protein Type I-B …; test: as above
Procedure: as §2

[13] = target: bovine PACAP receptor protein from bovine cerebrum (bovine) (UniProt Q29627); test: saturation binding experiment; fraction: Gel filtration (final purified sample)

## [^125I]-PACAP27
[1]
  Kd: 29 pM and 30 pM

B1: PACAP27 (peptide)
peptide: HSDGIFTDSYSRYRKQMAVKKYLAAVL-NH2
notes: also called unlabeled PACAP27; cold PACAP27
[2]
  binding result: binds
[3]
  binding result: binds

B2: [^125I]-PACAP27 (peptide)
peptide: HSDGIFTDSYSRYRKQMAVKKYLAAVL-NH2
modifications: also: 125I label on one Tyr, which one not given here
notes: also called radioactive iodine-labelled PACAP27
[4]
  Kd: 103 pM
[5]
  Specific activity: 9.9 pmol/mg
  Total activity (maximum binding of [125I]PACAP27): 4700 pmol
[6]
  Total activity (maximum binding of [125I]PACAP27): 2040 pmol
[7]
  Specific activity: 25 pmol/mg
  Total activity (maximum binding of [125I]PACAP27): 3350 pmol
[8]
  Specific activity: 1.3 pmol/mg
  Total activity (maximum binding of [125I]PACAP27): 8120 pmol
[9]
  Specific activity: 1.9 pmol/mg
  Total activity (maximum binding of [125I]PACAP27): 4560 pmol
[10]
  Total activity (maximum binding of [125I]PACAP27): 1720 pmol
[11]
  binding result: binds
[12]
  binding result: binds
[13]
  Specific activity: 16000 pmol/mg
  Total activity (maximum binding of [125I]PACAP27): 671 pmol
